Experimental data: the Human Domainome abundance scans (Beltran et al. 2025)
± gives the uncertainty stated by the source.

B1: Triacylglycerol hydrolase DDHD2, residues 389 to 447; numbered along this chain, O94830 (parent)
chain: TLEEDLKKLQLSEFFDIFEKEKVDKEALALCTDRDLQEIGIPLGPRKKILNYFSTRKNS
B2: Probable E3 ubiquitin-protein ligase MID2, residues 191 to 235; numbered along this chain, Q9UJV3 (parent)
chain: RGITCLDHENEKVNMYCVSDDQLICALCKLVGRHRDHQVASLNDR

Variants of: B1
Assay: abundance fitness (aPCA) (normalised: wild type 0, dead -1); higher = more abundant; growth selection in yeast, the domain comes from the species named
Details: Homo sapiens
Work on TLEEDLKKLQLSEFFDIFEKEKVDKEALALCTDRDLQEIGIPLIPRKKILNYFSTRKNS [G44I] yielded an abundance fitness of 0.418 ± 0.052. With TLEEDLKKLQLSEFFDIFEKEKVDKEALALCTDRDLQEIGIPLGPRKKITNYFSTRKNS [L50T] the abundance fitness was -0.209 ± 0.092. For TLEEDLKKLQLSEFFDIFEKEKVDKEALALCTDRDLQEIGIPLGPRKKIANYFSTRKNS [L50A], the abundance fitness was -0.415 ± 0.089. Work on TLEEDLKKLQLSEFFDIFEKEKVDKEALALCTDRDLQEIGIPLGPRKKIRNYFSTRKNS [L50R] yielded an abundance fitness of -0.247 ± 0.06. For TLEEDLKKLQLSEFFDIFEKEKVDKEALALCTDRDLQEIGIPLGPRKKILNYFSTSKNS [R56S], the abundance fitness was -0.027 ± 0.072. In the case of TLEEDLKKLQLWEFFDIFEKEKVDKEALALCTDRDLQEIGIPLGPRKKILNYFSTRKNS [S12W], the abundance fitness is reported as -0.137 ± 0.075. For TLEEDLKKLQLSEFFDIFEKEKVDKEALALCTDRDLQEIGIPLGPRKKCLNYFSTRKNS [I49C], the abundance fitness was -0.33 ± 0.097. Work on TLEEDLKKLQLSEFFDIFEKEKVDKEALALCTDRDLQEIGIPLGPRKKNLNYFSTRKNS [I49N] yielded an abundance fitness of -0.589 ± 0.14. TLEEDLKKLQLSEFFRIFEKEKVDKEALALCTDRDLQEIGIPLGPRKKILNYFSTRKNS [D16R] gave an abundance fitness of 0.049 ± 0.047. In the case of TLEEDLKKLQLSEFFDIFEKEKVDKEALALCTDRDLQEIGIPLGPRKKILNYFSTRQNS [K57Q], the abundance fitness is reported as -0.076 ± 0.098. Work on TLEEDLKKLQLSEFFDIFEKEKVDKEALALCTDRDLQEIGIPLGPRKKILNYFSTRTNS [K57T] yielded an abundance fitness of -0.155 ± 0.09. For TLEEDLFKLQLSEFFDIFEKEKVDKEALALCTDRDLQEIGIPLGPRKKILNYFSTRKNS [K7F], the abundance fitness was -0.038 ± 0.14. In the case of TLEEDLKKLQLSEFFDIFEKPKVDKEALALCTDRDLQEIGIPLGPRKKILNYFSTRKNS [E21P], the abundance fitness is reported as -0.27 ± 0.099. In the case of TLEEDLKKLQLSEFFDIFEKEKVDKEALALCTDRDLQEIGIPLGPRKFILNYFSTRKNS [K48F], the abundance fitness is reported as -0.457 ± 0.13. TLEEDLKKLQLSEFFDIFEKEKVDKEALALCTDRDLQEIGIPLGPRKDILNYFSTRKNS [K48D] gave an abundance fitness of -0.184 ± 0.1. TLEEDLKKLQLSEFFDIFEKEKVDKEALALCTDRDLQEIGFPLGPRKKILNYFSTRKNS [I41F] gave an abundance fitness of -0.888 ± 0.25. For TLEEDLKKLQLSEFFDIFEKEKVDKEALALCTDRDLQEIGSPLGPRKKILNYFSTRKNS [I41S], the abundance fitness was -0.168 ± 0.08. Variant TLEEDLKKLQLSEFFDIFEKEKVDKEALALCTDRDLQEIGNPLGPRKKILNYFSTRKNS [I41N] has an abundance fitness of -0.837 ± 0.21. In the case of TLEEDLKKLQLSEFVDIFEKEKVDKEALALCTDRDLQEIGIPLGPRKKILNYFSTRKNS [F15V], the abundance fitness is reported as -0.097 ± 0.064. TLEEDLKKLQLSEFFDIFEKEKVDKEALALCTDRDLQEIGIPLGHRKKILNYFSTRKNS [P45H] showed an abundance fitness of -0.261 ± 0.094. TLEEDLKKLQLSEFFDIFEKEKVDKEALALCTDRDLQEIGIPLGPRKKILNYFSSRKNS [T55S] showed an abundance fitness of -0.007 ± 0.067. For TLEEDLKKLQLSEFFDIFEKEKVDKEPLALCTDRDLQEIGIPLGPRKKILNYFSTRKNS [A27P], the abundance fitness was -0.355 ± 0.13. In the case of TLEEDLKKLQLSEFFDIFEKEKVDKEMLALCTDRDLQEIGIPLGPRKKILNYFSTRKNS [A27M], the abundance fitness is reported as 0.639 ± 0.094. For TLEEDLKKLYLSEFFDIFEKEKVDKEALALCTDRDLQEIGIPLGPRKKILNYFSTRKNS [Q10Y], the abundance fitness was -0.191 ± 0.17. With TLEEDLKKLQLSEFFDIFEKEKVDKEALALCTDRDLQEIGIPLGPRKKILDYFSTRKNS [N51D] the abundance fitness was 0.209 ± 0.089. TLEEDLKKLQLSEFFDIFEKEKVDKEALALCTDRDLQEIGIPLGPRKKILYYFSTRKNS [N51Y] showed an abundance fitness of -0.475 ± 0.14. TLEEDLKKLQLSEFFDIFEKEKVDKEAPALCTDRDLQEIGIPLGPRKKILNYFSTRKNS [L28P] gave an abundance fitness of -0.504 ± 0.12. For TLEEDLKKLQLSEFFDIFEKEKVDDEALALCTDRDLQEIGIPLGPRKKILNYFSTRKNS [K25D], the abundance fitness was -0.027 ± 0.1. Work on TLEEDLKKLQLSEFFDIFEKEKVDKEALMLCTDRDLQEIGIPLGPRKKILNYFSTRKNS [A29M] yielded an abundance fitness of -0.156 ± 0.11. TLEEDLKKLQLSEFFDIFEKEKVDKEALALCTDRDLQTIGIPLGPRKKILNYFSTRKNS [E38T] showed an abundance fitness of -0.051 ± 0.083. For TLEEDLKKLQLSEFFDIFEKEKVDKEALALCTDRDLQEVGIPLGPRKKILNYFSTRKNS [I39V], the abundance fitness was -0.052 ± 0.07.

Variants of: B2
Assay: as above
Details: Homo sapiens
Work on RAITCLDHENEKVNMYCVSDDQLICALCKLVGRHRDHQVASLNDR [G2A] yielded an abundance fitness of -0.135 ± 0.054. For DGITCLDHENEKVNMYCVSDDQLICALCKLVGRHRDHQVASLNDR [R1D], the abundance fitness was -0.079 ± 0.072. Variant AGITCLDHENEKVNMYCVSDDQLICALCKLVGRHRDHQVASLNDR [R1A] has an abundance fitness of -0.158 ± 0.069. In the case of VGITCLDHENEKVNMYCVSDDQLICALCKLVGRHRDHQVASLNDR [R1V], the abundance fitness is reported as -0.195 ± 0.066. With MGITCLDHENEKVNMYCVSDDQLICALCKLVGRHRDHQVASLNDR [R1M] the abundance fitness was -0.044 ± 0.11. With YGITCLDHENEKVNMYCVSDDQLICALCKLVGRHRDHQVASLNDR [R1Y] the abundance fitness was -0.807 ± 0.38. Work on SGITCLDHENEKVNMYCVSDDQLICALCKLVGRHRDHQVASLNDR [R1S] yielded an abundance fitness of -0.187 ± 0.059. Variant IGITCLDHENEKVNMYCVSDDQLICALCKLVGRHRDHQVASLNDR [R1I] has an abundance fitness of -0.17 ± 0.095. Work on EGITCLDHENEKVNMYCVSDDQLICALCKLVGRHRDHQVASLNDR [R1E] yielded an abundance fitness of 0.019 ± 0.097. With FGITCLDHENEKVNMYCVSDDQLICALCKLVGRHRDHQVASLNDR [R1F] the abundance fitness was 0.127 ± 0.3. Variant GGITCLDHENEKVNMYCVSDDQLICALCKLVGRHRDHQVASLNDR [R1G] has an abundance fitness of -0.04 ± 0.049. In the case of HGITCLDHENEKVNMYCVSDDQLICALCKLVGRHRDHQVASLNDR [R1H], the abundance fitness is reported as -0.081 ± 0.17. NGITCLDHENEKVNMYCVSDDQLICALCKLVGRHRDHQVASLNDR [R1N] showed an abundance fitness of -0.017 ± 0.15. With KGITCLDHENEKVNMYCVSDDQLICALCKLVGRHRDHQVASLNDR [R1K] the abundance fitness was -0.211 ± 0.14. For LGITCLDHENEKVNMYCVSDDQLICALCKLVGRHRDHQVASLNDR [R1L], the abundance fitness was -0.194 ± 0.081. In the case of TGITCLDHENEKVNMYCVSDDQLICALCKLVGRHRDHQVASLNDR [R1T], the abundance fitness is reported as -0.118 ± 0.092. QGITCLDHENEKVNMYCVSDDQLICALCKLVGRHRDHQVASLNDR [R1Q] showed an abundance fitness of 0.069 ± 0.11. In the case of WGITCLDHENEKVNMYCVSDDQLICALCKLVGRHRDHQVASLNDR [R1W], the abundance fitness is reported as -0.502 ± 0.073.
